Assay results: article PMC3398911

Legend:
[1] = target: GST-RhoC-43T (human) (UniProt P08134)
[2] = target: GST-RhoC (wild type) (human) (UniProt P08134)

B1: GST-XPLN (full length) (enzyme)
chain: MVAKDYPFYLTVKRANCSLELPPASGPAKDAEEPSNKRVKPLSRVTSLANLIPPVKATPLKRFSQTLQRSISFRSESRPDILAPRPWSRNAAPSSTKRRDSKLWSETFDVCVNQMLTSKEIKRQEAIFELSQGEEDLIEDLKLAKKAYHDPMLKLSIMTEQELNQIFGTLDSLIPLHEELLSQLRDVRKPDGSTEHVGPILVGWLPCLSSYDSYCSNQVAAKALLDHKKQDHRVQDFLQRCLESPFSRKLDLWNFLDIPRSRLVKYPLLLREILRHTPNDNPDQQHLEEAINIIQGIVAEINTKTGESECRYYKERLLYLEEGQKDSLIDSSRVLCCHGELKNNRGVKLHVFLFQEVLVITRAVTHNEQLCYQLYRQPIPVKDLLLEDLQDGEVRLGGSLRGAFSNNERIKNFFRVSFKNGSQSQTHSLQANDTFNKQQWLNCIRQAKETVLCAAGQAGVLDSEGSFLNPTTGSRELQGETKLEQMDQSDSESDCSMDTSEVSLDCERMEQTDSSCGNSRHGESNV
For B1, which XPLN-catalysed mant-nucleotide exchange in vitro, fold stimulation [1] is on record?
The XPLN-catalysed mant-nucleotide exchange in vitro, fold stimulation was 1.4 fold.

And the XPLN-catalysed mant-nucleotide exchange in vitro, fold stimulation [2]?
The XPLN-catalysed mant-nucleotide exchange in vitro, fold stimulation was 1.1 fold.
